{
  "source": "paper PMC3245869",
  "about": "(Molecular cell, 2008)",
  "biological_target": "T1, Rnr2-Rnr4 heterodimer (ribonucleotide reductase small subunit) (S. cerevisiae, UniProt P09938 1-399; P49723 1-345)",
  "T1 sequence (looked up) 1": "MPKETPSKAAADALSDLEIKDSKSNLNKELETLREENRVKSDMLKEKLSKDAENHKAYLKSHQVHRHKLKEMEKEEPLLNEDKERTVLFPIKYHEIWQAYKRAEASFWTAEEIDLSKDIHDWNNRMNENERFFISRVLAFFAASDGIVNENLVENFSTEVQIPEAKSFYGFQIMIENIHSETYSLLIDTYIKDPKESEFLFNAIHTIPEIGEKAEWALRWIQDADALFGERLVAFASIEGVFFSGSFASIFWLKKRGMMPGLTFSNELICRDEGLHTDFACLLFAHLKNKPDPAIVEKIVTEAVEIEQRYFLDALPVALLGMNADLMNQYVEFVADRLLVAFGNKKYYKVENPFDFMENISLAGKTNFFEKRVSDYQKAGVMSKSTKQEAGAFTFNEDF",
  "T1 sequence (looked up) 2": "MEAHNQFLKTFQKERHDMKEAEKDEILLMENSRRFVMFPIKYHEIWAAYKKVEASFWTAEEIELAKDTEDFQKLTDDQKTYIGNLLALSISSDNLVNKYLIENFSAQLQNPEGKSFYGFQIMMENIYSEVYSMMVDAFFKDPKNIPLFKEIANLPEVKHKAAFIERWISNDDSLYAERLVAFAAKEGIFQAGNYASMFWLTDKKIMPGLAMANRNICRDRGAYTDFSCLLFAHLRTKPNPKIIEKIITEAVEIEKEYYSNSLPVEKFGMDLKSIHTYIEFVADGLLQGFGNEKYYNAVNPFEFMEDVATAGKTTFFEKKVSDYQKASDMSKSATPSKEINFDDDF",
  "test": "SPR",
  "data": [
    {"binder": "Recombinant wild-type Dif1 protein (His6-Dif1) (natural protein, S. cerevisiae, UniProt O13577 1-133, looked up) MDAQLEWASSLVPKRQLQQQQQQQEQQQQQQQDFHKDQLMTVGMRIRQRVDQGYASRTPSTSDASLQPGVIRDYSSVIVPQFTRSPLPTANSLPPMLINQRTMSTEASSLEKWDVAEPAAEHETMVNGSKRRL", "values": [
      {"measurement": "Kd", "value": 600, "unit": "nM"}
    ]}
  ]
}
